# According to paper PMC5082641:
# Key:
# [1] = target: SpyTag-EGFP-SdyTag (Streptococcus pyogenes | Streptococcus dysgalactiae); assay: covalent ligation read by SDS-PAGE and densitometry; step-wise reaction of dual-Tag constructs with SpyCatcher, 5 and 30 minutes; at 5 minutes aliquots given additional SpyCatcher or SdyCatcher DANG short for a further 25 minutes
# [2] = target: SdyTag-EGFP (Streptococcus dysgalactiae); assay: kinetics of covalent ligation by SDS-PAGE and densitometry; equimolar Catcher and Tag-EGFP (10 uM for SpyTag-EGFP; 50 uM for SdyTag-EGFP by S3 and S4 Figs), 100 uM sodium phosphate buffer pH 7, 25°C; second order rate constants from Catcher depletion; triplicates
# [3] = target: SpyTag-EGFP (Streptococcus pyogenes); assay: as above
# [4] = target: SdyTag-EGFP (Streptococcus dysgalactiae); assay: covalent ligation read by SDS-PAGE and densitometry; 50 uM Catcher with 65 uM SdyTag-EGFP (1.3 equivalents), 100 uM sodium phosphate buffer pH 7, 25°C, 40 minutes; quenched with SDS-PAGE loading buffer and boiled; yield with respect to the limiting Catcher; triplicates
substance,measurement,setting,value
SpyCatcher (domain or fragment),percent of products ligated twice,[1],< 10%
same,second order rate constant of covalent ligation,[2],1 M⁻¹ s⁻¹
same,second order rate constant of covalent ligation,[3],322 M⁻¹ s⁻¹
same,yield of ligated product after 40 minutes,[4],7%
